For eight substances, Kd results are on record in article PMC9484259.

What all share (assay): BLI; Forte Bio Octet; biotinylated Mm IgG or Fc captured on streptavidin SAX 2.0 tips, FcγRIII in solution in 3-fold serial dilutions (10 mM to 0.013 mM [sic]), PBST (0.05% Tween-PBS), 300 s association and 300 s dissociation; KD from equilibrium fits, average of two independent experiments; the footnote of Table 1 says SPR
(In general: BLI is a label-free optical method that tracks binding on a fibre tip over time.)

Assay [1] has as its target Fc of Mm IgG4 (Macaca mulatta (rhesus macaque)).
For assay [2], the target named is Mm IgG2 (Macaca mulatta (rhesus macaque)).
Assay [3] addresses macaque immunoglobulin IgG1 Fc (residues 237-447) (Macaca mulatta (rhesus macaque)).
Assay [4] has as its target Mm IgG1 (Macaca mulatta (rhesus macaque)).
Assay [5] has as its target Mm IgG3 (Macaca mulatta (rhesus macaque)).
Assay [6] deals with Fc of Mm IgG2 (Macaca mulatta (rhesus macaque)).
Assay [7] has as its target Mm IgG4 (Macaca mulatta (rhesus macaque)).
Assay [8] deals with Fc of Mm IgG3 (Macaca mulatta (rhesus macaque)).

For “Mm FcγRIII(Ile^158), fully glycosylated, Man5 glycans (from UniProt A3RFZ7 21-206) (receptor)”, the equilibrium dissociation constant (Kd) (as a rule, the free concentration of one partner at which half of the binding sites on the other are occupied at equilibrium, for simple one-to-one binding) was determined as 1100 nM in assay [1]; 1500 nM in assay [2]; 210 nM in assay [3]; 220 nM in assay [4]; 1900 nM in assay [5]; 150 nM in assay [6]. Besides, the Kd turned out to be 490 nM in assay [7] and 290 nM in assay [8].

For “Mm FcγRIII(Ile^158), fully glycosylated, complex glycans (from UniProt A3RFZ7 21-206) (receptor)”, the Kd was 1800 nM in assay [1]; 1800 nM in assay [2]; 250 nM in assay [3]; 260 nM in assay [4]; 1900 nM in assay [5]; 230 nM in assay [6]. For the same substance, the Kd in assay [7] was 980 nM; in assay [8], 400 nM.

As for “Mm FcγRIII(Ile^158), partial glycosylation (Asn^38 and Asn^169 glycans removed), Man5 glycans (receptor)”, the Kd in assay [1] came out at 1900 nM; in assay [2], 2800 nM; in assay [3] it was 60 nM; in assay [4] it was 280 nM; in assay [5], 3000 nM; in assay [6], 1500 nM. In addition, the Kd worked out at 1700 nM in assay [7] and 160 nM in assay [8].

With “Mm FcγRIII(Ile^158), partial glycosylation (Asn^38 and Asn^169 glycans removed), complex glycans (receptor)”, the Kd in assay [1] stood at 2200 nM; in assay [2], 2300 nM; in assay [3], 120 nM; in assay [4] it was 340 nM; in assay [5], 2800 nM; in assay [6], 1600 nM. For the same substance, the results for the Kd in assay [7] and in assay [8] were 2300 nM and 230 nM, respectively.

Take “Mm FcγRIII(Val^158), fully glycosylated, Man5 glycans (receptor)”: the Kd is 530 nM in assay [1]; 1800 nM in assay [2]; 300 nM in assay [3]; 280 nM in assay [4]; 2300 nM in assay [5]; 80 nM in assay [6]. The Kd in assay [7] was found to be 300 nM; in assay [8] it was 240 nM.

For the substance “Mm FcγRIII(Val^158), fully glycosylated, complex glycans (receptor)”, the dissociation constant Kd in assay [1] was determined as 630 nM; in assay [2], 2100 nM; in assay [3] it was 360 nM; in assay [4] it was 410 nM; in assay [5] it was 3200 nM; in assay [6], 90 nM. The Kd in assay [7] stood at 570 nM; in assay [8], 460 nM.

Regarding “Mm FcγRIII(Val^158), partial glycosylation (Asn^38 and Asn^169 glycans removed), Man5 glycans (receptor)”, the Kd in assay [1] was determined as 850 nM; in assay [2], 2200 nM; in assay [3], 10 nM; in assay [4] it was 290 nM; in assay [5], 4800 nM; in assay [6] it was 610 nM. In addition, the Kd in assay [7] amounted to 2200 nM; in assay [8] it was 280 nM.

With “Mm FcγRIII(Val^158), partial glycosylation (Asn^38 and Asn^169 glycans removed), complex glycans (receptor)”, the Kd in assay [1] came out at 1000 nM; in assay [2] it was 2600 nM; in assay [3], 30 nM; in assay [4], 460 nM; in assay [5], 4200 nM; in assay [6], 1200 nM. Moreover, the Kd amounted to 3000 nM in assay [7] and 250 nM in assay [8].
